B1: FCHO1 (parent)
chain: FTSSPSPFSSSSPENVEDSGLDSP

Variants of: B1
Test: protein stability index of a GFP-peptide fusion (GPS, HEK-293T) (PSI 1-6); higher = more stable
Conditions: c terminus: a fixed tail appended
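Also: lentivirally expressed fusions sorted by FACS into six bins by GFP to DsRed ratio, PSI derived from sequencing read proportions per bin multiplied by bin number.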

Protein stability index: each site, then its substitutions
S10: A 2.53 | F 2.09 | M 1.94 | Q 1.92 | D 1.93 | C 2.14 | P 2.3 | K 1.88 | W 2.7 | V 2.06 | E 2.05 | T 2.15 | Y 2.07 | L 1.71 | G 2.02 | R 2.56 | H 2 | N 2.3 | I 2.7
F8: D 5.5 | V 4.45 | Y 2.04 | E 5.2 | K 5.34 | T 5.39 | C 3.77 | H 5.05 | M 4.53 | P 4.95 | G 4.72 | A 5.11 | Q 4.95 | I 4.48 | R 4.29 | S 5.08 | N 4.9 | L 3.74
P5: M 2.02 | H 2.23 | Y 1.9 | S 2.67 | N 2.09 | W 1.87 | R 2.08 | Q 2.16 | L 1.91 | T 1.69 | I 1.81 | V 2.17 | K 2.31
P7: N 1.96 | Y 2.49 | Q 1.86 | G 2.89 | K 2.28 | V 2.24 | R 2.09 | D 3.19 | L 1.91 | T 2.38 | I 1.74 | A 2.25 | E 2.79 | H 2.12 | M 2.1 | C 1.56 | F 1.93 | S 2.25
S6: E 2.85 | R 2.21 | G 2.02 | A 2.37 | I 2.22 | Y 2.19 | N 1.98 | M 1.83 | V 1.99 | H 2.23 | L 1.86 | C 2.18 | W 2.44 | T 2.19 | K 2.67 | Q 2.08 | D 3.29 | F 1.79
P13: S 2.13 | Y 2.04 | M 1.58 | N 1.66 | V 2.28 | H 2.29 | F 2.49 | A 1.77 | E 2.44 | Q 2.39 | D 2.1 | T 1.77 | L 2.21 | C 1.53 | R 1.85 | G 1.93 | K 2.14 | I 2.05 | W 1.83
E14: F 1.64 | G 1.92 | A 1.96 | C 1.69 | D 2.4
S11: M 1.76 | G 1.33 | W 2.39 | K 1.86 | N 1.55 | E 2.18 | R 2.01 | F 1.62 | Y 2.25 | T 1.67 | V 1.77 | P 1.86 | C 2.65 | L 1.63 | D 2.75 | H 1.83 | I 2.23 | Q 2.06 | A 2.05
S9: M 2.02 | K 1.89 | Y 2.45 | G 2.2 | I 2.91 | E 2.83 | N 2.08 | R 1.76 | W 2.71 | C 2.22 | A 2.09 | H 1.84 | D 2.67 | L 2.17 | V 1.73 | F 2.34 | T 2.29 | Q 2.06 | P 3.79
S12: F 2.65 | Y 1.75 | R 1.56 | T 2.01 | D 2.53 | V 2.56 | L 2.27 | C 2.46 | K 1.56 | Q 2.26 | A 1.74 | N 2.37 | W 1.98 | G 2.36 | E 1.7 | I 2.12 | H 3.01 | P 2.25 | M 1.99

— the supplement of paper PMC10567573
